Publication PMC4972647 (Nature structural & molecular biology, 2016)
Each block holds one molecule with its values, some of them ahead of it.

Assays:
Assay in all cases: BLI
[1] = target: N-terminal GST-tagged GlyRS (human)
[2] = target: NEDD8-conjugated Ubc12 (Ubc12(C111S)^N8-His) (human) (UniProt P61081)
GST-APPBP1 = target: T1, GST-APPBP1 (human, UniProt Q13564 1-534)
T1 sequence: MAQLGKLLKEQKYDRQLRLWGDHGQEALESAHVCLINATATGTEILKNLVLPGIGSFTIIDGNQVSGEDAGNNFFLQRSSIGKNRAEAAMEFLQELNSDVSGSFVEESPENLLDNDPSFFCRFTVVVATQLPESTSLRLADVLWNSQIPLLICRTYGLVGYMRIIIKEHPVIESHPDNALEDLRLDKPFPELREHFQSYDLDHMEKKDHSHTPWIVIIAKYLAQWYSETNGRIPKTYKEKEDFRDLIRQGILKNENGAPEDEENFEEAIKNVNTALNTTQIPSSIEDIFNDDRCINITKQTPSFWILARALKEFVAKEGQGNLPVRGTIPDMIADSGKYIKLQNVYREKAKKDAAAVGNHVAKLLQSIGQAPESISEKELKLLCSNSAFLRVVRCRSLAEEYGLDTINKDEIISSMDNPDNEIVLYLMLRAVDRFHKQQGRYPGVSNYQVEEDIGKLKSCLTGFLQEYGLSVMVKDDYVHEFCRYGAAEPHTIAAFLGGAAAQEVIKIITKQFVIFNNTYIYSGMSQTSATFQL

- Kd [1]: 4.09 nM
Molecule: NEDD8-conjugated Ubc12 (Ubc12(C111S)^N8-His) (from UniProt P61081;Q15843) (complex)

- Kd [1]: 488 nM
Molecule: purified recombinant human Ubc12 (from UniProt P61081 1-183) (enzyme)

- Kd [2]: 4.32 nM
Molecule: ΔInsertion1 GlyRS (F147-F224 replaced by GSGSGG) (from UniProt P41250-2 225-685) (enzyme)

- Kd [2]: 3.21 nM
Molecule: Tag-free wild type human GlyRS (enzyme)

- Kd [1]: 126 nM
Molecule: purified recombinant human NEDD8 (from UniProt Q15843 1-76) (natural protein)

- Kd [2]: 39.5 nM
Molecule: G526R GlyRS (enzyme)

- Kd [2]: 27 nM
Molecule: Δ84-93 GlyRS (F84-L93 replaced by GGG) (from UniProt P41250-2 94-685) (enzyme)

- binding result (GST-APPBP1): binds
B1: ABD (V541-E685) of human GlyRS (domain or fragment)
chain: VREGDEQRTFFSFPAVVAPFKCSVLPLSQNQEFMPFVKELSEALTRHGVSHKVDDSSGSIGRRYARTDEIGVAFGVTIDFDTVNKTPHTATLRDRDSMRQIRAEISELPSIVQDLANGNITWADVEARYPLFEGQETGKKETIEE
